Reference: patent US20260347496 (published 2026)
Numbering of substitutions follows the chain as printed. Several values for one entry are separate records, joined by “and”; a condition that tells them apart may be missing. Equal entries are not always repeated. Where two headings read alike, the source gives them in different places. Values belong to the binder of their own block, whether it stands above or below them.

Columns and labels:
Experiment in all cases: ELISA
[1] = target: CD24(27-56aa)-GST NEOX-4 (human)
[2] = target: CD24(27-56aa)-GST NEOX-4 (human); remark: listed apart in the source
[3] = target: CD24(27-56aa)-GST NEOX-4 (human); remark: listed apart in the source

Sequence of CD24(27-56aa)-GST NEOX-4 (human) (chain, as listed by the source): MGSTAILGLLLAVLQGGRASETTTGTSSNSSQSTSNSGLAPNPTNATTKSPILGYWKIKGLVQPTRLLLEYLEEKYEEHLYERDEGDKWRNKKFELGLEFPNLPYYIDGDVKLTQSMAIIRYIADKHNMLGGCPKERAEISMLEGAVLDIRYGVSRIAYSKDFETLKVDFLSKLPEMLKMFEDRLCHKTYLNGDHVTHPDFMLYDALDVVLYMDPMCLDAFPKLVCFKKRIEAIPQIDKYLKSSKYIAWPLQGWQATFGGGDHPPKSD

- EC50 [1]: 3.87 ng/mL
B1: huG14-137 (antibody, V domains shown)
VH: EVQLVESGGGLVKPGGSLRLSCAASGLTFSNYWGNWVRQAPGKGLEWVALIRLYSDNYAIHYAESVKGRFTISRDDSKSTVYLQMNSLKTEDTAVYYCTTGTDNWGQGTTVTVSS
VL: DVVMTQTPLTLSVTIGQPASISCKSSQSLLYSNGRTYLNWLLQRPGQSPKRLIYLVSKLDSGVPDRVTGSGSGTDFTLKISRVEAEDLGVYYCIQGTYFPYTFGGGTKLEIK

- EC50 [1]: 3.17 ng/mL
B2: huG14-139 (antibody, V domains shown)
VH: B1 VH
VL: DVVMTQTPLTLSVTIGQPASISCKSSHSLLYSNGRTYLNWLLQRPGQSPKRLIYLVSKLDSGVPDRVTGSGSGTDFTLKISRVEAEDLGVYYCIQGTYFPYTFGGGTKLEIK

- EC50 [1]: 12.1 ng/mL
B3: huG14-112 (antibody, V domains shown)
VH: B1 VH with G34M, N104Y
VL: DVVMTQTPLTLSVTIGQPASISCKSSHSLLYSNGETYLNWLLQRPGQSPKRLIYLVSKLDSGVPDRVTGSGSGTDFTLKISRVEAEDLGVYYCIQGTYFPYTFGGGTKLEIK

- EC50 [2]: 4.26 ng/mL
B4: huG14-210 (antibody, V domains shown)
VH: B1 VH with G34M, N104Y
VL: DVVMTQSPLSLPVTPGRPASISCKSSHSLLYSNGRTYLNWLLQKPGQSPQRLIYLVSKLDSGVPDRFSGSGSGTDFTLKISRVEAEDLGVYYCIQGTYFPYTFGQGTKLEIK

- EC50 [2]: 6.28 ng/mL
B5: huG14-205 (antibody, V domains shown)
VH: B1 VH with G34M, N104Y
VL: B4 VL with R35K, I94V

- EC50 [2]: 6.18 ng/mL
B6: huG14-224 (antibody, V domains shown)
VH: B1 VH with G34M
VL: B4 VL

- EC50 [1]: 11.9 ng/mL
B7: huG14-113 (antibody, V domains shown)
VH: B1 VH with G34M, N104Y
VL: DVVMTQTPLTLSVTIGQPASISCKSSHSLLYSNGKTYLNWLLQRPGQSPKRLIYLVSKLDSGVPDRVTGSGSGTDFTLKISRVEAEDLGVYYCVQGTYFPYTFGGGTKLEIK

- EC50 [2]: 5.71 ng/mL
B8: huG14-207 (antibody, V domains shown)
VH: B1 VH with G34M, N104Y
VL: B4 VL with H27Q, R35K

- EC50 [1]: 4.12 ng/mL
B9: huG14-128 (antibody, V domains shown)
VH: B1 VH with G34M
VL: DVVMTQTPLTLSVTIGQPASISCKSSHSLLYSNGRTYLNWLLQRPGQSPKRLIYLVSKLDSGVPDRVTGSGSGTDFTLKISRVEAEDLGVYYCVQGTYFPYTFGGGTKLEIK

- EC50 [1]: 3.83 ng/mL
B10: huG14-134 (antibody, V domains shown)
VH: B1 VH
VL: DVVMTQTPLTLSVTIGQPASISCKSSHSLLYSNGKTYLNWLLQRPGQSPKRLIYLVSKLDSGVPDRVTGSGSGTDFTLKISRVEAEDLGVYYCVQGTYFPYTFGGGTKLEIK

- EC50 [1]: 5.66 ng/mL
B11: huG14-133 (antibody, V domains shown)
VH: B1 VH
VL: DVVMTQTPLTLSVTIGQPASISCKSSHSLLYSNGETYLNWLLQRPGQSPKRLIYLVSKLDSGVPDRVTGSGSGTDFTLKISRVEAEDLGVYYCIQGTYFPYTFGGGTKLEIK

- EC50 [2]: 4.82 ng/mL
B12: huG14-223 (antibody, V domains shown)
VH: B1 VH with G34M
VL: B4 VL with R35K

- EC50 [2]: 9.1 ng/mL
B13: huG14-229 (antibody, V domains shown)
VH: B1 VH
VL: B4 VL with H27Q

- EC50 [1]: 3.89 ng/mL
B14: huG14-130 (antibody, V domains shown)
VH: B1 VH with G34M
VL: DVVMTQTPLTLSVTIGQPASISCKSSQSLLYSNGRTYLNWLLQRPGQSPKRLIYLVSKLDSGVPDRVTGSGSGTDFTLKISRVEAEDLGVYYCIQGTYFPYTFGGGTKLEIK

- EC50 [2]: 4.91 ng/mL
B15: huG14-222 (antibody, V domains shown)
VH: B1 VH with G34M
VL: B4 VL with H27Q

- EC50 [1]: 8.93 ng/mL
B16: huG14-119 (antibody, V domains shown)
VH: B1 VH with N104Y
VL: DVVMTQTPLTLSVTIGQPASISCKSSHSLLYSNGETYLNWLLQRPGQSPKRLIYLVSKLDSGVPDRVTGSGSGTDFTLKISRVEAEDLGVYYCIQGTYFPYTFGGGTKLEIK

- EC50 [3]: 10.9 ng/mL
B17: huG14-109 (antibody, V domains shown)
VH: B1 VH with N104Y
VL: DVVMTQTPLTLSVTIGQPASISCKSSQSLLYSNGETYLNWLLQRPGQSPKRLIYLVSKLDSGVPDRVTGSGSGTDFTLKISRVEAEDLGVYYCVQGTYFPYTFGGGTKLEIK

- EC50 [1]: 3.86 ng/mL
B18: huG14-123 (antibody, V domains shown)
VH: B1 VH with N104Y
VL: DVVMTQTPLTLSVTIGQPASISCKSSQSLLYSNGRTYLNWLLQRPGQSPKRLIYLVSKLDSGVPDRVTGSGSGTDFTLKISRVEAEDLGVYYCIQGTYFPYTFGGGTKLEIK

- EC50 [2]: 4.13 ng/mL
B19: huG14-209 (antibody, V domains shown)
VH: B1 VH with G34M, N104Y
VL: B4 VL with R35K

- EC50 [1]: 7.37 ng/mL and 7.04 ng/mL
B20: huG14-121 (antibody, V domains shown)
VH: B1 VH with N104Y
VL: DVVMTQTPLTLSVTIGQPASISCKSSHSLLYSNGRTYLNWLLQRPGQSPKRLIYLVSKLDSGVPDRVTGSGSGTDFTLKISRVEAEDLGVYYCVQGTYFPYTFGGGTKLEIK

- EC50 [2]: 10.7 ng/mL
B21: huG14-226 (antibody, V domains shown)
VH: B1 VH
VL: B4 VL with R35K, I94V

- EC50 [2]: 4.02 ng/mL
B22: huG14-208 (antibody, V domains shown)
VH: B1 VH with G34M, N104Y
VL: B4 VL with H27Q

- EC50 [2]: 6.67 ng/mL
B23: huG14-204 (antibody, V domains shown)
VH: B1 VH with G34M, N104Y
VL: B4 VL with R35E

- EC50 [2]: 4.71 ng/mL
B24: huG14-218 (antibody, V domains shown)
VH: B1 VH with G34M
VL: B4 VL with R35E

- EC50 [1]: 4.83 ng/mL
B25: huG14-118 (antibody, V domains shown)
VH: B1 VH with G34M, N104Y
VL: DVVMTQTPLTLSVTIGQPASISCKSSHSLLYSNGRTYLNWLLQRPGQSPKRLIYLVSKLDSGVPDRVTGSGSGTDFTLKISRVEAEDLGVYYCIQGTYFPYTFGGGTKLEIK

- EC50 [2]: 7.63 ng/mL
B26: huG14-227 (antibody, V domains shown)
VH: B1 VH
VL: B4 VL with I94V

- EC50 [2]: 3.29 ng/mL
B27: huG14-213 (antibody, V domains shown)
VH: B1 VH with N104Y
VL: B4 VL with I94V

- EC50 [1]: 7.12 ng/mL
B28: huG14-122 (antibody, V domains shown)
VH: B1 VH with N104Y
VL: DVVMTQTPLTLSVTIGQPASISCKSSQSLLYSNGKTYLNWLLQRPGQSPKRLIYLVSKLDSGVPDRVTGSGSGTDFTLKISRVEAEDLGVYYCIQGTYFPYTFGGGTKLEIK

- EC50 [1]: 2.97 ng/mL
B29: huG14-127 (antibody, V domains shown)
VH: B1 VH with G34M
VL: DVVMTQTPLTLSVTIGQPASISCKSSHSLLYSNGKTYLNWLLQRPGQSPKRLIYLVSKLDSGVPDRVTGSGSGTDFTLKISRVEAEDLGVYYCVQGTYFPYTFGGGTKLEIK

- EC50 [1]: 7.27 ng/mL
B30: huG14-117 (antibody, V domains shown)
VH: B1 VH with G34M, N104Y
VL: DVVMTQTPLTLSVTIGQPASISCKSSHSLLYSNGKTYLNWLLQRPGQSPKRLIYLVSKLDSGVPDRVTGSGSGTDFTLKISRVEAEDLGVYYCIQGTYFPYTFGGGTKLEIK

- EC50 [2]: 5.17 ng/mL
B31: huG14-220 (antibody, V domains shown)
VH: B1 VH with G34M
VL: B4 VL with I94V

- EC50 [1]: 11.2 ng/mL
B32: huG14-116 (antibody, V domains shown)
VH: B1 VH with G34M, N104Y
VL: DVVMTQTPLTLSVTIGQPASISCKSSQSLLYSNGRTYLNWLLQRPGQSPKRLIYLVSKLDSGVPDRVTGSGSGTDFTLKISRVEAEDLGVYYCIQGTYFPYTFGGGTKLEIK

- EC50 [2]: 4.92 ng/mL
B33: huG14-206 (antibody, V domains shown)
VH: B1 VH with G34M, N104Y
VL: B4 VL with I94V

- EC50 [1]: 6.23 ng/mL
B34: huG14-120 (antibody, V domains shown)
VH: B1 VH with N104Y
VL: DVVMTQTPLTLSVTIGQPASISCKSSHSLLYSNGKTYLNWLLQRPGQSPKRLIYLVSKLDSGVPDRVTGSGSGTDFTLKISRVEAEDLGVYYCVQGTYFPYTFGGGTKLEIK

- EC50 [2]: 8.25 ng/mL
B35: huG14-231 (antibody, V domains shown)
VH: B1 VH
VL: B4 VL

- EC50 [2]: 6.28 ng/mL
B36: huG14-225 (antibody, V domains shown)
VH: B1 VH
VL: B4 VL with R35E

- EC50 [1]: 10.4 ng/mL
B37: huG14-114 (antibody, V domains shown)
VH: B1 VH with G34M, N104Y
VL: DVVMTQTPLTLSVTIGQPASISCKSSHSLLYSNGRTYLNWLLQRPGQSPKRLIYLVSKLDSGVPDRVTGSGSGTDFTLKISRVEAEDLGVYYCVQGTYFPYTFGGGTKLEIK

- EC50 [2]: 3.34 ng/mL
B38: huG14-211 (antibody, V domains shown)
VH: B1 VH with N104Y
VL: B4 VL with R35E

- EC50 [1]: 3.93 ng/mL
B39: huG14-126 (antibody, V domains shown)
VH: B1 VH with G34M
VL: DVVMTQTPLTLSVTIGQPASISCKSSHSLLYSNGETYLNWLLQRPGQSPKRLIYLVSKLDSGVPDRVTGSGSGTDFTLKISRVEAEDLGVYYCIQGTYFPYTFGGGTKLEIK

- EC50 [2]: 5.69 ng/mL
B40: huG14-219 (antibody, V domains shown)
VH: B1 VH with G34M
VL: B4 VL with R35K, I94V

- EC50 [3]: 20.6 ng/mL
B41: huG14-105 (antibody, V domains shown)
VH: B1 VH with G34M, N104Y
VL: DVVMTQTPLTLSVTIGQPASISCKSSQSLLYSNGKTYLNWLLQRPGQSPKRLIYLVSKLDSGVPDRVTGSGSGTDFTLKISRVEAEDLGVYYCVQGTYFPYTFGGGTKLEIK

- EC50 [1]: 4.72 ng/mL
B42: huG14-132 (antibody, V domains shown)
VH: B1 VH with G34M
VL: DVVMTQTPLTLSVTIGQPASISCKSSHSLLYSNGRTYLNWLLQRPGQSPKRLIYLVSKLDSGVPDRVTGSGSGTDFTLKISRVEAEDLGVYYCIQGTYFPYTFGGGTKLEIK

- EC50 [1]: 3.87 ng/mL
B43: huG14-135 (antibody, V domains shown)
VH: B1 VH
VL: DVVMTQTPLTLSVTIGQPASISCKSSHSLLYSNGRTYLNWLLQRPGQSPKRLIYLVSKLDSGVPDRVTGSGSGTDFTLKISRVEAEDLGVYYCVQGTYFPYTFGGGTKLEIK

- EC50 [2]: 3.06 ng/mL
B44: huG14-214 (antibody, V domains shown)
VH: B1 VH with N104Y
VL: B4 VL with H27Q, R35K

- EC50 [1]: 4.05 ng/mL
B45: huG14-136 (antibody, V domains shown)
VH: B1 VH
VL: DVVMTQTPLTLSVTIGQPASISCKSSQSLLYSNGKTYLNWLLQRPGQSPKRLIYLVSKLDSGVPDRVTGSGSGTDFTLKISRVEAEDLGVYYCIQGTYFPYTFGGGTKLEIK

- EC50 [1]: 3.28 ng/mL
B46: huG14-138 (antibody, V domains shown)
VH: B1 VH
VL: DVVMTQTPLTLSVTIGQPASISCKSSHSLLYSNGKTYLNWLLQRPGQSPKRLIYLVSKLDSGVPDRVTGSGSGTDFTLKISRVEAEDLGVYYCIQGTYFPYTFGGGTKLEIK

- EC50 [2]: 9.88 ng/mL
B47: huG14-228 (antibody, V domains shown)
VH: B1 VH
VL: B4 VL with H27Q, R35K

- EC50 [2]: 8.41 ng/mL
B48: huG14-233 (antibody, V domains shown)
VH: B1 VH
VL: B4 VL with S10R, Q105I

- EC50 [2]: 5.93 ng/mL
B49: huG14-221 (antibody, V domains shown)
VH: B1 VH with G34M
VL: B4 VL with H27Q, R35K

- EC50 [2]: 3.41 ng/mL
B50: huG14-215 (antibody, V domains shown)
VH: B1 VH with N104Y
VL: B4 VL with H27Q

- EC50 [2]: 3.19 ng/mL
B51: huG14-212 (antibody, V domains shown)
VH: B1 VH with N104Y
VL: B4 VL with R35K, I94V

- EC50 [1]: 4.09 ng/mL
B52: huG14-129 (antibody, V domains shown)
VH: B1 VH with G34M
VL: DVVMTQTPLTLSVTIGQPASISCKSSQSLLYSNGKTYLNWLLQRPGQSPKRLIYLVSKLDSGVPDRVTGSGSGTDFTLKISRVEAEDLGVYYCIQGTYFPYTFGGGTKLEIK

- EC50 [1]: 12.9 ng/mL
B53: huG14-115 (antibody, V domains shown)
VH: B1 VH with G34M, N104Y
VL: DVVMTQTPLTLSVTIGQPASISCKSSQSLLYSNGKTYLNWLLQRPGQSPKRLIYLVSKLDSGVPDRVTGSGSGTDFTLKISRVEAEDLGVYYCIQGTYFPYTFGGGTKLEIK
